Reference: patent publication US8563520B2, “Treatment of ocular disease with inhibitors of alpha2 macroglobulin protein” (McGill University, priority 2005, dated 2013)
Where two headings read alike, the source gives them in different places.

System: Rat Retina
Method: The following experiment was conducted in order to assess changes in gene expression induced in the retina after intraocular injection of α2 macroglobulin protein. 2 μg of α2 macroglobulin protein was intraocularly injected into the right eye of rats (n=3) and the left eye was used as a control. One rat was tested at Day 3, one rat was tested at Day 7 and one rat was tested at Day 14. Retinas were isolated and mRNA was collected. Samples from each of the rats were studied by gene microassays. Retinas were carefully dissected out to insure that only retinal mRNAs were prepared for gene microarray studies. Samples were obtained from control eyes.
Total RNA was isolated from retinal tissue using TRIZOL® (Life Technologies). RNA was then further purified using the RNAEASY® (QIAGEN®). The integrity of the RNA samples was assessed by running aliquots on RNA 6000 Nano LabChip (Agilent) using the 2100 bioanalyzer (Agilent).
Probe synthesis, hybridization and scanning were done according to Affymetrix protocol, as a service at the McGill University and Genome Quebec Innovation Centre. For the experiments shown, Rat U34 Genome Arrays (8,700 genes, Affymetrix) were used. Briefly, RNA samples were first converted to double stranded cDNA (T7-(dT)24 primer (Genset)). Then the cDNAs were purified and used to generate the biotinylated cRNA probes (Bioarray High Yield RNA transcript labeling kit (Enzo diagnostics)). An aliquot of the purified cRNA was analyzed on RNA 6000 Nano LabChip (Agilent) to verify the integrity and size distribution. Immediately after hybridization the chip was placed in the Affymetrix GeneChip Fluidics Station 400 (Affymetrix). In total, 10 low-stringency washes (63 SSPE, 0.01% Tween-20, 0.005% Antifoam) and 4 high-stringency washes (100 mM MES, 0.1 M NaCl, 0.01% Tween-20, 50 C) were performed (all reagents from Sigma). The array was then incubated with SAPE® (streptavidin/phycoerythrin stain, Molecular Probes), followed by 10 low stringency washes. The array was incubated with biotinylated anti-streptavidin antibody (Vector Laboratories) and washed again with 15 low stringency washes. Specifically bound probe was detected by placing the array in the Agilent GeneArray scanner 2500 (Affymetrix). The scanned images were analyzed using the Microarray Analysis Suite version 5.0 (Affymetrix).
The fold change was analyzed by […] data for the control eye from the data on the eye injected with α2 macroglobulin. A fold change of 2 or greater indicates upregulation. A fold of 0.5 to 2 indicates no change. A fold change of 0.5 or less indicates downregulation.

[1] = gene ADP-ribosylation factor guanine nucleotide-exchange factor 1 (1392282_at)
[2] = gene Bone morphogenetic protein receptor, type 1A (1390398_at)
[3] = gene CDNA clone IMAGE: 7321089 (1389986_at)
[4] = gene CREB binding protein (1385852_at)
[5] = gene Ewing sarcoma breakpoint region 1 (1378518_at)
[6] = gene Exosome component 8 (predicted) (1386936_at)
[7] = gene FERM domain containing 4B (1384681_at)
[8] = gene Fc receptor, IgG, low affinity IIb (1371079_at)
[9] = gene High density lipoprotein binding protein (1375309_at)
[10] = gene RT1 class II, locus Ba (1370822_at)
[11] = gene RT1 class II, locus Bb (1371033_at)
[12] = gene RT1 class II, locus Da (1370883_at)
[13] = gene RT1 class II, locus Db1 (1370383_s_at)
[14] = gene S100 calcium binding protein A11 (calizzarin) (1375170_at)
[15] = gene Similar to CG10084-PA (1394756_at)
[16] = gene Similar to NICE-3 (1397412_at)
[17] = gene Similar to expressed sequence AV312086 (predicted) (1390657_at)
[18] = gene Similar to hypothetical protein D630010C10 (1385108_at)
[19] = gene Thyroid hormone receptor interactor 12 (1380803_at)
[20] = gene Transcribed locus (1381100_at)
[21] = gene Transcribed locus (1382211_at)
[22] = gene Transcribed locus (1382368_at)
[23] = gene Transcribed locus (1382510_at)
[24] = gene Transcribed locus (1384014_at)
[25] = gene Transcribed locus (1385552_at)
[26] = gene Transcribed locus (1391757_at)
[27] = gene Transcribed locus (1392155_at)
[28] = gene Transcribed locus (1392675_at)
[29] = gene Transcribed locus (1395390_at)
[30] = gene Transcribed locus (1397883_at)
[31] = gene actin related protein 2/3 complex, subunit 1B (1386925_at)
[32] = gene argininosuccinate synthetase (1370964_at)
[33] = gene ash1 (absent, small, or homeotic)-like (Drosophila) (predicted) (1382862_at)
[34] = gene cold inducible RNA binding protein (1382809_at)
[35] = gene complement component 1, s subcomponent (1387893_at)
[36] = gene complement component 3 (1368000_at)
[37] = gene complement component 4a (1370892_at)

B1: α2m: α2 macroglobulin protein injected intraocularly into normal rat eyes (protein, UniProt P06238 28-1472, looked up)
Alpha-2-macroglobulin: SAPQKPIYMVMVPSLLHAGTPEKACFLFSHLNETVAVRVSLESVRGNQSLFTDLVVDKDLFHCTSFTVPQSSSDEVMFFTVQVKGATHEFRRRSTVLVKKKESLVFAQTDKPIYKPGQTVRFRVVSLDESFHPLNELIPLLYIQDPKNNRIAQWQNFNLEGGLKQLSFPLSSEPTQGSYKVVIRTESGRTVEHPFSVEEFVLPKFEVRVTVPETITILEEEMNVSVCGIYTYGKPVPGRVTVNICRKYSNPSNCFGEESVAFCEKLSQQLDGRGCFSQLVKTKSFQLKRQEYEMQLDVHAKIQEEGTGVEETGKGLTKITRTITKLSFVNVDSHFRQGIPFVGQVLLVDGRGTPIPYETIFIGADEANLYINTTTDKHGLARFSINTDDIMGTSLTVRAKYKDSNACYGFRWLTEENVEAWHTAYAVFSPSRSFLHLESLPDKLRCDQTLEVQAHYILNGEAMQELKELVFYYLMMAKGGIVRAGTHVLPLKQGQMRGHFSILISMETDLAPVARLVLYAILPNGEVVGDTAKYEIENCLANKVDLVFRPNSGLPATRALLSVMASPQSLCGLRAVDQSVLLMKPETELSASLIYDLLPVKDLTGFPQGADQREEDTNGCVKQNDTYINGILYSPVQNTNEEDMYGFLKDMGLKVFTNSNIRKPKVCERLRDNKGIPAAYHLVSQSHMDAFLESSESPTETRRSYFPETWIWDLVVVDSAGVAEVEVTVPDTITEWKAGAFCLSNDTGLGLSPVVQFQAFQPFFVELTMPYSVIRGEAFTLKATVLNYLPTCIRVAVQLEASPDFLAAPEEKEQRSHCICMNQRHTASWAVIPKSLGNVNFTVSAEALNSKELCGNEVPVVPEQGKKDTIIKSLLVEPEGLENEVTFNSLLCPMGAEVSELIALKLPSDVVEESARASVTVLGDILGSAMQNTQDLLKMPYGCGEQNMVLFAPNIYVLDYLNETQQLTQEIKTKAIAYLNTGYQRQLNYKHRDGSYSTFGDKPGRNHANTWLTAFVLKSFAQARKYIFIDEVHITQALLWLSQQQKDNGCFRSSGSLLNNAMKGGVEDEVTLSAYITIALLEMSLPVTHPVVRNALFCLDTAWKSARGGAGGSHVYTKALLAYAFALAGNQDTKKEILKSLDEEAVKEEDSVHWTRPQKPSVSVALWYQPQAPSAEVEMTAYVLLAYLTTEPAPTQEDLTAAMLIVKWLTKQQNSHGGFSSTQDTVVALHALSKYGSATFTRAKKAAQVTIHSSGTFSTKFQVNNNNQLLLQRVTLPTVPGDYTVKVTGEGCVYLQTSLKYSVLPREEEFPFTVVVQTLPGTCEDPKAHTSFQISLNISYTGSRSESNMAIADVKMVSGFIPLKPTVKMLERSVHVSRTEVSNNHVLIYLDKVSNQTVNLSFTVQQDIPIRDLKPAVVKVYDYYEKDEFAVAKYSAPCSTDYGNA
Fold Change (α2m vs normal) Day 3 [1]: 0.5
Fold Change (α2m vs normal) Day 7 [1]: 0.3
Fold Change (α2m vs normal) Day 3 [2]: 0.4
Fold Change (α2m vs normal) Day 7 [2]: 0.2
Fold Change (α2m vs normal) Day 14 [2]: 2.6
Fold Change (α2m vs normal) Day 3 (gene CD74 antigen (1367679_at)): 10.1
Fold Change (α2m vs normal) Day 7 (gene CD74 antigen (1367679_at)): 6.5
Fold Change (α2m vs normal) Day 3 [3]: 0.5
Fold Change (α2m vs normal) Day 7 [3]: 0.3
Fold Change (α2m vs normal) Day 14 [3]: 2.9
Fold Change (α2m vs normal) Day 3 [4]: 0.5
Fold Change (α2m vs normal) Day 7 [4]: 0.4
Fold Change (α2m vs normal) Day 3 [5]: 0.4
Fold Change (α2m vs normal) Day 7 [5]: 0.1
Fold Change (α2m vs normal) Day 3 [6]: 0.4
Fold Change (α2m vs normal) Day 7 [6]: 4.3
Fold Change (α2m vs normal) Day 14 [6]: 2.4
Fold Change (α2m vs normal) Day 3 [7]: 0.5
Fold Change (α2m vs normal) Day 7 [7]: 0.2
Fold Change (α2m vs normal) Day 14 [7]: 2.3
Fold Change (α2m vs normal) Day 3 [8]: 9.4
Fold Change (α2m vs normal) Day 7 [8]: 2.1
Fold Change (α2m vs normal) Day 3 [9]: 0.5
Fold Change (α2m vs normal) Day 7 [9]: 0.5
Fold Change (α2m vs normal) Day 3 (gene LOC361776 (1373010_at)): 20.1
Fold Change (α2m vs normal) Day 7 (gene LOC361776 (1373010_at)): 0.5
Fold Change (α2m vs normal) Day 3 [10]: 8.3
Fold Change (α2m vs normal) Day 7 [10]: 4.5
Fold Change (α2m vs normal) Day 3 [11]: 6.8
Fold Change (α2m vs normal) Day 7 [11]: 5.2
Fold Change (α2m vs normal) Day 3 [12]: 16.1
Fold Change (α2m vs normal) Day 7 [12]: 11.3
Fold Change (α2m vs normal) Day 3 [13]: 4.9
Fold Change (α2m vs normal) Day 7 [13]: 3.5
Fold Change (α2m vs normal) Day 3 [14]: 2.0
Fold Change (α2m vs normal) Day 7 [14]: 4.5
Fold Change (α2m vs normal) Day 3 [15]: 0.5
Fold Change (α2m vs normal) Day 7 [15]: 0.3
Fold Change (α2m vs normal) Day 14 [15]: 2.4
Fold Change (α2m vs normal) Day 3 [16]: 0.5
Fold Change (α2m vs normal) Day 7 [16]: 0.4
Fold Change (α2m vs normal) Day 14 [16]: 2.0
Fold Change (α2m vs normal) Day 3 [17]: 0.4
Fold Change (α2m vs normal) Day 7 [17]: 0.3
Fold Change (α2m vs normal) Day 3 [18]: 0.4
Fold Change (α2m vs normal) Day 7 [18]: 0.2
Fold Change (α2m vs normal) Day 3 [19]: 0.3
Fold Change (α2m vs normal) Day 7 [19]: 0.4
Fold Change (α2m vs normal) Day 3 [20]: 0.4
Fold Change (α2m vs normal) Day 7 [20]: 0.3
Fold Change (α2m vs normal) Day 14 [20]: 5.4
Fold Change (α2m vs normal) Day 3 [21]: 0.3
Fold Change (α2m vs normal) Day 7 [21]: 4.2
Fold Change (α2m vs normal) Day 3 [22]: 0.4
Fold Change (α2m vs normal) Day 7 [22]: 0.2
Fold Change (α2m vs normal) Day 14 [22]: 2.7
Fold Change (α2m vs normal) Day 3 [23]: 0.4
Fold Change (α2m vs normal) Day 7 [23]: 0.3
Fold Change (α2m vs normal) Day 3 [24]: 0.5
Fold Change (α2m vs normal) Day 7 [24]: 4.2
Fold Change (α2m vs normal) Day 14 [24]: 2.0
Fold Change (α2m vs normal) Day 3 [25]: 0.5
Fold Change (α2m vs normal) Day 7 [25]: 0.3
Fold Change (α2m vs normal) Day 3 [26]: 0.5
Fold Change (α2m vs normal) Day 7 [26]: 0.2
Fold Change (α2m vs normal) Day 14 [26]: 2.0
Fold Change (α2m vs normal) Day 3 [27]: 2.4
Fold Change (α2m vs normal) Day 7 [27]: 16.6
Fold Change (α2m vs normal) Day 3 [28]: 0.4
Fold Change (α2m vs normal) Day 7 [28]: 0.3
Fold Change (α2m vs normal) Day 3 [29]: 0.4
Fold Change (α2m vs normal) Day 7 [29]: 4.1
Fold Change (α2m vs normal) Day 3 [30]: 2.4
Fold Change (α2m vs normal) Day 7 [30]: 17.0
Fold Change (α2m vs normal) Day 3 [31]: 2.7
Fold Change (α2m vs normal) Day 7 [31]: 2.0
Fold Change (α2m vs normal) Day 3 [32]: 0.4
Fold Change (α2m vs normal) Day 7 [32]: 2.4
Fold Change (α2m vs normal) Day 3 [33]: 0.5
Fold Change (α2m vs normal) Day 7 [33]: 0.2
Fold Change (α2m vs normal) Day 3 (gene cadherin 1 (1386947_at)): 0.4
Fold Change (α2m vs normal) Day 7 (gene cadherin 1 (1386947_at)): 9.6
Fold Change (α2m vs normal) Day 14 (gene cadherin 1 (1386947_at)): 2.4
Fold Change (α2m vs normal) Day 3 [34]: 0.4
Fold Change (α2m vs normal) Day 7 [34]: 0.1
Fold Change (α2m vs normal) Day 14 [34]: 2.2
Fold Change (α2m vs normal) Day 3 [35]: 6.0
Fold Change (α2m vs normal) Day 7 [35]: 3.6
Fold Change (α2m vs normal) Day 3 [36]: 8.4
Fold Change (α2m vs normal) Day 7 [36]: 2.1
Fold Change (α2m vs normal) Day 3 [37]: 2.2
Fold Change (α2m vs normal) Day 7 [37]: 2.3
Fold Change (α2m vs normal) Day 3 (gene complement factor B (1389470_at)): 3.9
